# Laboratory results as given in the Immune Epitope Database (IEDB).
# Columns and labels:
# HLA-A*02:01 [1] = assay: IEDB peptide-MHC binding, purified MHC/competitive/fluorescence; ≥ and ≤ were set here for values at or beyond the usual limits of such assays; conditions: source organism: Zaire ebolavirus
# HLA-A*24:02 = assay: as above; conditions: source organism: Zaire ebolavirus
# HLA-B*07:02 [2] = assay: as above; conditions: source organism: Zaire ebolavirus
# HLA-B*15:01 [3] = assay: as above; conditions: source organism: Zaire ebolavirus
# HLA-B*07:02 [4] = assay: IEDB peptide-MHC binding, purified MHC/direct/fluorescence; filed as Kd, often an IC50 or EC50 that approximates it; ≥ and ≤ were set here for values at or beyond the usual limits of such assays
# HLA-B*51:01 = assay: as above
# HLA-C*14:02 = assay: as above
# HLA-A*26:02 = assay: as above
# HLA-A*01:01 = assay: as above
# HLA-A*02:11 = assay: as above; conditions: source organism: Vibrio vulnificus YJ016
# HLA-A*11:01 = assay: as above
# HLA-A*26:03 = assay: as above; conditions: source organism: Vibrio vulnificus YJ016
# HLA-A*31:01 = assay: as above; conditions: source organism: Vibrio vulnificus YJ016
# HLA-A*68:02 = assay: as above
# HLA-A*69:01 [5] = assay: as above; conditions: source organism: Vibrio vulnificus YJ016
# HLA-B*08:01 [6] = assay: as above
# HLA-B*15:17 = assay: as above; conditions: source organism: Vibrio vulnificus YJ016
# HLA-B*18:01 = assay: as above
# HLA-B*57:01 = assay: as above
# HLA-B*58:01 = assay: as above; conditions: source organism: Vibrio vulnificus YJ016
# HLA-A*02:01 [7] = assay: IEDB peptide-MHC binding, purified MHC/competitive/fluorescence; filed as Kd, often an IC50 or EC50 that approximates it; ≥ and ≤ were set here for values at or beyond the usual limits of such assays; conditions: source organism: Vibrio vulnificus YJ016
# HLA-A*02:03 = assay: as above; conditions: source organism: Vibrio vulnificus YJ016
# HLA-A*02:06 = assay: as above; conditions: source organism: Vibrio vulnificus YJ016
# HLA-A*30:01 = assay: as above; conditions: source organism: Vibrio vulnificus YJ016
# HLA-B*07:02 [8] = assay: as above; conditions: source organism: Vibrio vulnificus YJ016
# HLA-B*39:01 = assay: as above
# HLA-A*26:01 [9] = assay: IEDB peptide-MHC binding, purified MHC/direct/fluorescence; filed as Kd, often an IC50 or EC50 that approximates it; ≥ and ≤ were set here for values at or beyond the usual limits of such assays; conditions: source organism: Influenza A virus (A/goose/Hong Kong/8/1976(H1N1))
# HLA-B*08:01 [10] = assay: IEDB peptide-MHC binding, purified MHC/competitive/fluorescence; ≥ and ≤ were set here for values at or beyond the usual limits of such assays; conditions: source organism: Zaire ebolavirus
# HLA-A*03:01 = assay: IEDB peptide-MHC binding, purified MHC/direct/fluorescence; filed as Kd, often an IC50 or EC50 that approximates it; ≥ and ≤ were set here for values at or beyond the usual limits of such assays; conditions: source organism: Zaire ebolavirus
# HLA-A*23:01 = assay: as above; conditions: source organism: Zaire ebolavirus
# HLA-A*29:02 = assay: as above; conditions: source organism: Zaire ebolavirus
# HLA-B*27:05 = assay: as above; conditions: source organism: Zaire ebolavirus
# HLA-B*44:02 = assay: as above; conditions: source organism: Zaire ebolavirus
# HLA-B*46:01 = assay: as above; conditions: source organism: Zaire ebolavirus
# HLA-A*26:01 [11] = assay: IEDB peptide-MHC binding, purified MHC/competitive/fluorescence; filed as Kd, often an IC50 or EC50 that approximates it; ≥ and ≤ were set here for values at or beyond the usual limits of such assays; conditions: source organism: Zaire ebolavirus
# HLA-A*69:01 [12] = assay: as above; conditions: source organism: Zaire ebolavirus
# HLA-B*27:03 = assay: as above; conditions: source organism: Zaire ebolavirus
# HLA-B*15:01 [13] = assay: IEDB peptide-MHC binding, purified MHC/direct/fluorescence; filed as Kd, often an IC50 or EC50 that approximates it; ≥ and ≤ were set here for values at or beyond the usual limits of such assays; conditions: source organism: Yellow fever virus 17D
# [14] = source organism: Giardia lamblia ATCC 50803
# [15] = source organism: Vibrio vulnificus YJ016
# [16] = source organism: Zaire ebolavirus
sequence,measurement,setting,value
AAVSHLTTL,IC50,HLA-A*02:01 [1],1.05 µM
same,IC50,HLA-A*24:02,2.25 µM
same,IC50,HLA-B*07:02 [2],21.7 µM
same,IC50,HLA-B*15:01 [3],16.5 µM
ATAQNRRAL,Kd,HLA-B*07:02 [4]; [14],0.0227 µM
same,Kd,HLA-B*51:01; [14],≥ 20 µM
same,Kd,HLA-C*14:02; [14],0.273 µM
DTITNVTTM,Kd,HLA-A*26:02; source organism: West Nile virus strain PTRoxo,≤ 0.001 µM
same,Kd,HLA-C*14:02; source organism: West Nile virus,1.65 µM
LLRRRPYPL,Kd,HLA-A*01:01; [15],≥ 20 µM
same,Kd,HLA-A*02:11,≤ 0.001 µM
same,Kd,HLA-A*11:01; [15],≥ 20 µM
same,Kd,HLA-A*26:02; [15],≥ 20 µM
same,Kd,HLA-A*26:03,≥ 20 µM
same,Kd,HLA-A*31:01,≥ 20 µM
same,Kd,HLA-A*68:02; [15],≥ 20 µM
same,Kd,HLA-A*69:01 [5],≥ 20 µM
same,Kd,HLA-B*08:01 [6]; [15],0.003 µM
same,Kd,HLA-B*15:17,≥ 20 µM
same,Kd,HLA-B*18:01; [15],≥ 20 µM
same,Kd,HLA-B*57:01; [15],≥ 20 µM
same,Kd,HLA-B*58:01,≥ 20 µM
same,Kd,HLA-A*02:01 [7],0.105 µM
same,Kd,HLA-A*02:03,0.0021 µM
same,Kd,HLA-A*02:06,2.04 µM
same,Kd,HLA-A*30:01,0.441 µM
same,Kd,HLA-B*07:02 [8],0.206 µM
same,Kd,HLA-B*39:01; [15],≥ 20 µM
LSPGMMMGM,Kd,HLA-A*26:01 [9],≥ 20 µM
same,Kd,HLA-A*26:02; source organism: Influenza B virus (B/Beijing/184/93),0.319 µM
RLAKLTEAI,IC50,HLA-A*02:01 [1],14.9 µM
same,IC50,HLA-A*24:02,1.43 µM
same,IC50,HLA-B*07:02 [2],≥ 217 µM
same,IC50,HLA-B*08:01 [10],≥ 182 µM
same,IC50,HLA-B*15:01 [3],48 µM
same,Kd,HLA-A*01:01; [16],≥ 20 µM
same,Kd,HLA-A*03:01,≥ 20 µM
same,Kd,HLA-A*11:01; [16],≥ 20 µM
same,Kd,HLA-A*23:01,≥ 20 µM
same,Kd,HLA-A*29:02,≥ 20 µM
same,Kd,HLA-A*68:02; [16],≥ 20 µM
same,Kd,HLA-B*07:02 [4]; [16],≥ 20 µM
same,Kd,HLA-B*08:01 [6]; [16],13.3 µM
same,Kd,HLA-B*18:01; [16],≥ 20 µM
same,Kd,HLA-B*27:05,≥ 20 µM
same,Kd,HLA-B*44:02,≥ 20 µM
same,Kd,HLA-B*46:01,≥ 20 µM
same,Kd,HLA-B*57:01; [16],≥ 20 µM
same,Kd,HLA-A*26:01 [11],≥ 20 µM
same,Kd,HLA-A*69:01 [12],≥ 20 µM
same,Kd,HLA-B*27:03,≥ 20 µM
same,Kd,HLA-B*39:01; [16],≥ 20 µM
SVAMCRTPF,Kd,HLA-B*15:01 [13],0.032 µM
same,Kd,HLA-B*51:01; source organism: Yellow fever virus 17D,≥ 20 µM
